Data published in a protein production outcome set (Wang et al. 2014).

Experiment: label from the status in PepcDB records

| Sequence | protein production |
| --- | --- |
| MRNRLPPAWAKHLKTQPSVKVAMPKATLPKAQPNASPPRSQADDMLLRQALELQQAKRLPEAEELCLRVLARTPNHPLAYYILGTLGIGYDNEKALRYFARAVAEEPQNPYYHLSLGETYLKVSEFTPAIRHIQQALDLKPDLVEALCALGDAYNEFDKGELALPLFEKALKIDRYHPLARLGLPYALASLGRMDEAAVLLKEAIDRRIALPTAYGALVQTRNFTEEPPELESILAELRDPDLGSEDASALHHAAGKVLNDLGRYKEAMVHYKKGNQAGGHKFDLENYRRWIDAMIETFTPELFASRAAYGNPSDAPVFVVGMPRSGTTLTEQICASHPNVHGAGELGKLRRVANGIGLANRSNTNFAESIATFTPDLTRALAGEHLAYLRERAPDALRIVDKMPHNFELIGLIGILFPNARIIHCRRDAIDNCISCFVLRFNEAHSYSADLQTLGLYYREYDRLMRHWNKVLPGRIFENRYEALIENQEQQSRRLIDYLGLPWDDACLRFFDREGSVNTYSRWQVRQPIYTSSIKRWRNYESEIQSLIESLGDLAET | failed |
| MRNRTLADLDRVVALGGGHGLGRVLSSLSSLGSRLTGIVTTTDNGGSTGRIRRSEGGIAWGDMRNCLNQLITEPNVASAMFEYRFGGNGELSGHNLGNLMLKALDHLSVRPLEAINLIRNLLKVDTHLIPMSEHPVDLMAIDDQGHEVYGEVNIDQLTTPIQELLLTPNVPATREAVHAINEADLIIIGPGSFYTSLMPILLLKEIAQALRRTPAPMVYIGNLGRELSLPAANLKLESKLAIMEQYVGKKVIDAVIVGPKVDVSAVKERIVIQEVLEASDIPYRHDRQLLHNALEKALQALGLEHHHHHH | failed |
| MRNTNLQAMIESAILAAFALVIDILPLSIKLPTGGSISFAMIPIFIIAYRWGFKSAFLGGLVWGLLQIVVGDAYILTPVQAFIEYFIAFAFIGFAGLFYRPIQKALLTSNENNLEQSSLGSRKDKPSSKQNEGKKVLAYIILATFIGSFARYFCHFIAGIIFWGQYAPKGQSAVLYSLIVNGSTMIGSYILCTVLLIFLFLTSPRLFKSISAYQLNANKKGA | failed |
| MRPAVIAATGLYTPPDSVSNAELVEAFNTYVANFNAANKARIEAGEIEPLQPSSSEFIEKASGIKSRYVVAKPGIVDPDVMRPIIPERSNDELSILAEMAVTAAEQAIERWGKPRERIGAVLCACSNMQRAYPAMAIEVQNALGLGGFAFDMNVACSSATFGLKTAADFVGGGSVDAVLMVNPEICSGHLNFRDRDSHFIFGDVATAAIVERADDAQGGWS | failed |
| MRPESMTDGVPGSDSPAAAAAAASVTTSLHDLQVLVERGTLSGPEKQQADHLVTSLKRELVLRRVGDHLAERTFHELCVRLAVMERDWAAMERHIQQLMPLYELDRQAGIQSPHRDLLVGLNLMRLLAQNRLAEYHMELELLPTTEPQQNPYVLFPFQVEQALTEGSYQKILHIEAGAEWLPFIELLRETTIQEMVTSWAEAYAHVTLEELASMAALPVEQVPALLARVLDCTQYVVQNETVHFIASDHIREAPSQYLLAKEAVSRTMEYIRGLERIV | not failed |
| MRPHRAFSPGLTGVLPLRETRHLVEVLRARVGDRFTVFDGEREALAEVVDLGPPLRYRVLEERRPEREVGVEVVLYVALLKGDKLAEVVRAATELGATRIQPLVTRHSVPKEMGEGKLRRLRAVALEAAKQSGRVVVPEVLPPIPLKAVPQVAQGLVAHVGATARVREVLDPEKPLALAVGPEGGFAEEEVALLEARGFTPVSLGRRILRAETAALALLALCTAGEGR | not failed |
| MRPRLGLLDASVLSFAVLPTDLDFNRHMTNARYLSLMDLGRLDLILRSGMWRLVLRQSLQPVIGGALVRFRHALRPFQPFRLTTRVLAWDARWLFIEHRVETLDGKPACTAVVRAAFVASTGMLPTADLLTRLGYGGAAPDVPAWIAPWLQADLACQPLEHHHHHH | failed |
| MRPVPPPPDRSGRCFASPRRSDLSPQAGRGEEPLAAPIEPSLPPSRPIPGRPAPPGTFAMDWTWYLFRFDGRINRALLWQALLIVALLAGLLEIVGQVIGILGGTRSTLKLAIDLDFDFGLDDLFKLVDPRASRSLASADRATSILKASGMALFFWIYLATTIKRLHDRDRSGWWIVPFFVVPGLFSQFADLLPNSNWMLPFSLAVSILWLWGLVEMFCRPGTSGHNRFGPDPLADFEDSSAASPAQGWDQSREIEIVPPNASPPGGMHVKRGA | failed |
| MRQDAEVIMKLTDADNAADGIFFPALEQNMMGAVLINENDEVMFFNPAAEKLWGYKREEVIGNNIDMLIPRDLRPAHPEYIRHNREGGKARVEGMSRELQLEKKDGSKIWTRFALSKVSAEGKVYYLALVRDASVEMAQKEQTRQLIIAVDHLDRPVIVLDPERHIVQCNRAFTEMFGYCISEASGMQPDTLLNIPEFPADNRIRLQQLLWKTARDQDEFLLLTRTGEKIWIKASISPVYDVLAHLQNLVMTFSDITEERQIRQLEGNILAAMCSSPPFHEMGEIICRNIESVLNESHVSLFALRNGMPIHWASSSHGAEIQNAQSWSATIRQRDGAPAGILQIKTSSGAETSAFIERVADISQHMAALALEQEKSRQHIEQLIQFDPMTGLPNRNNLHNYLDDLVDKAVSPVVYLIGVDHIQDVIDSLGYAWADQALLEVVNRFREKLKPDQYLCRIEGTQFVLVSLENDVSNITQIADELRNVVSKPIMIDDKPFPLTLSIGISYDLGKNRDYLLSTAHNAMDYIRKNGGNGWQFFSPAMNEMVKERLVLGAALKEAISNNQLKLVYQPQIFAETGELYGIEALARWHDPLHGHVPPSRFIPLAEEIGEIENIGRWVIAEACRQLAEWRSQNIHIPALSVNLSALHFRSNQLPNQVSDAMHAWGIDGHQLTVEITESMMMEHDTEIFKRIQILRDMGVGLSVDDFGTGFSGLSRLVSLPVTEIKIDKSFVDRCLTEKRILALLEAITSIGQSLNLTVVAEGVETKEQFEMLRKIHCRVIQGYFFSRPLPAEEIPGWMSSVLPLKI | failed |
| MRQIGNRRVAPLAILAAVLMGGPTNASTGEFKVAYLYNLSDFTGTIPYSLAKIALDATARETYVISGETVKVFNNSGMEVYRFTNTMESGIVYDAAIDEQGRILVLAYNNGTPSLLLCNYRAEPIKPIEFKGLPEKLAAFKPNRLMLRDGKICLVSLGSMMVVMLDPEGNYVKHIDLAEASSVTEEDRLNTGIGAVAFDSDGSVLFTSPVTGKVFRISANGTVESFGKRGSAPGKFGVPTGIAVDGLGNYYISDKLRCAILVFDRQFKFIYEFGGRGDAPGSLVGPDDLAIDAEGKLYVGQLGNRGVSVFKVTHD | failed |
| MRQSTLHTRLSTGPGGSMRSSIEIFNIRTRKMRVVWQTPELFEAPNWSPDGKYLLLNSEGLLYRLSLAGDPSPEKVDTGFATICNNDHGISPDGALYAISDKVEFGKSAIYLLPSTGGTPRLMTKNLPSYWHGWSPDGKSFTYCGIRDQVFDIYSMDIDSGVETRLTHGEGRNDGPDYSPDGRWIYFNSSRTGQMQIWRVRVDGSSVERITDSAYGDWFPHPSPSGDKVVFVSYDADVFDHPRDLDVRVQLMDMDGGNVETLFDLFGGQGTMNSPNWSPDGDEFAYVRYFPVE | not failed |
| MRQTFIARKISFISLIHFRDEYMSPQNNHLQRPPAAVLYADELAKLKQNDNAPCPPGWQLSLPAARAFILGDEAQNISRKVVISPSAVERMLVTLATGRGLMLVGEPGTAKSLLSELLATAISGDAGLTIQGGASTTEDQIKYGWNYALLINHGPSTEALVPAPLYQGMRDGKIVRFEEITRTPLEVQDCLLGMLSDRVMTGPELTGEASQLYAREGFNIIATANTRDRGVNEMSAALKRRFDFETVFPIMDFAQELELVASASARLLAHSGIPHKVPDAVLELLVRTFRDLRANGEKKTSMDTLTAIMSTAEAVNVAHAVGVRAWFLANRAGEPADLVECIAGTIVKDNEEDRARLRRYFEQRVATHKEAHWQAYYQARHRLP | failed |
| MRRENTKSNIDFKSIFDSLPDLYLLLDRDFNIVGVSDAYLQATMVSRKQILGKNVFDAFPDNPNDPKATGAKNLYASLLRVLKNKSADTMAIQKYDIQRPADRGGGFEERYWSPINTPVLGADQEVEYIIHRVEDVT | failed |
| MRRGRGKGKKQNASAREDRGSGDEEKIPAYRRRGRPQKPMKDDFEEEEEEDDEEMVEKMEVEDEDEEIDDGSVTSKDLKERKRKMSNGSNTDLTEEENGLGSKPNTDDSTRSTSIGFRQNGSRRKSKPRRAAEAVVECNGV | failed |
